# Reference: patent publication US6617117B1, “MAP kinases: polypeptides, polynucleotides and uses thereof” (Medical Research Council, priority 1996, dated 2003)
# B1: EGF: growth factor stimulus from Boehringer (protein, UniProt P01133 23-1207, looked up)
# Pro-epidermal growth factor: PQHWSCPEGTLAGNGNSTCVGPAPFLIFSHGNSIFRIDTEGTNYEQLVVDAGVSVIMDFHYNEKRIYWVDLERQLLQRVFLNGSRQERVCNIEKNVSGMAINWINEEVIWSNQQEGIITVTDMKGNNSHILLSALKYPANVAVDPVERFIFWSSEVAGSLYRADLDGVGVKALLETSEKITAVSLDVLDKRLFWIQYNREGSNSLICSCDYDGGSVHISKHPTQHNLFAMSLFGDRIFYSTWKMKTIWIANKHTGKDMVRINLHSSFVPLGELKVVHPLAQPKAEDDTWEPEQKLCKLRKGNCSSTVCGQDLQSHLCMCAEGYALSRDRKYCEDVNECAFWNHGCTLGCKNTPGSYYCTCPVGFVLLPDGKRCHQLVSCPRNVSECSHDCVLTSEGPLCFCPEGSVLERDGKTCSGCSSPDNGGCSQLCVPLSPVSWECDCFPGYDLQLDEKSCAASGPQPFLLFANSQDIRHMHFDGTDYGTLLSQQMGMVYALDHDPVENKIYFAHTALKWIERANMDGSQRERLIEEGVDVPEGLAVDWIGRRFYWTDRGKSLIGRSDLNGKRSKIITKENISQPRGIAVHPMAKRLFWTDTGINPRIESSSLQGLGRLVIASSDLIWPSGITIDFLTDKLYWCDAKQSVIEMANLDGSKRRRLTQNDVGHPFAVAVFEDYVWFSDWAMPSVMRVNKRTGKDRVRLQGSMLKPSSLVVVHPLAKPGADPCLYQNGGCEHICKKRLGTAWCSCREGFMKASDGKTCLALDGHQLLAGGEVDLKNQVTPLDILSKTRVSEDNITESQHMLVAEIMVSDQDDCAPVGCSMYARCISEGEDATCQCLKGFAGDGKLCSDIDECEMGVPVCPPASSKCINTEGGYVCRCSEGYQGDGIHCLDIDECQLGEHSCGENASCTNTEGGYTCMCAGRLSEPGLICPDSTPPPHLREDDHHYSVRNSDSECPLSHDGYCLHDGVCMYIEALDKYACNCVVGYIGERCQYRDLKWWELRHAGHGQQQKVIVVAVCVVVLVMLLLLSLWGAHYYRTQKLLSKNPKNPYEESSRDVRSRRPADTEDGMSSCPQPWFVVIKEHQDLKNGGQPVAGEDGQAADGSMQPTSWRQEPQLCGMGTEQGCWIPVSSDKGSCPQVMERSFHMPSYGTQTLEGGVEKPHSLLSANPLWQQRALDPPHQMELTQ
# modifications: Pro-epidermal growth factor
# notes: growth factor stimulus from Boehringer
# Molecular target: T1, SAPK3 (Rattus norvegicus, UniProt Q63538)
# T1 sequence (Q63538 1-367): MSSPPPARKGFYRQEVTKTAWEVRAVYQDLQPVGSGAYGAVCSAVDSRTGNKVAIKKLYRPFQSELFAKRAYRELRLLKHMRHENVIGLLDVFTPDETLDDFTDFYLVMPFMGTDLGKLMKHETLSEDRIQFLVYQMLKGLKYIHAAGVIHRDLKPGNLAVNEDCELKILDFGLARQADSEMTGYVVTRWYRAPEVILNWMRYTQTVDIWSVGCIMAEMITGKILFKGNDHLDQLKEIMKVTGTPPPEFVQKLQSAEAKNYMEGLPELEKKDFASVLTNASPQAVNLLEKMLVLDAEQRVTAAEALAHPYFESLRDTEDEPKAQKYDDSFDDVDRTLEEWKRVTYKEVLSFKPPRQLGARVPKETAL
# Experiment: Activation of transfected myc epitope-tagged SAPK3 in KB and 293 cells, immunoprecipitation and MBP assay
# Assay type: cell-based, human
# Parameters: expressed in transfected cells; host or cells: human KB and 293 cells (vector pSG5)
# Conditions: FIG. 11A
# Experimental: FIG. 11. SAPK3 is activated by cytokines and cellular stresses in KB and 293 cells. KB cells (A) or 293 cells (B) were transiently transfected with a DNA construct expressing a myc epitope-tagged SAPK3. Cells in DMEM were stimulated for 15 min with 0.5 M sorbitol (an osmotic shock), 20 ng/ml IL-1α, 100 ng/ml TNFa, 0.5 mM sodium arsenite (a chemical stress), 100 ng/ml of EGF or 300 ng/ml TPA, or for 30 min with […] anisomycin or 10 min with 100 ng/ml IGF-1. UV-C irradiation of cells was carried out at 60 J/m2 (KB cells) or 200 J/m2 (293 cells) and the cells then left for a further 30 min at 37° C. before lysis. The myc epitope-tagged SAPK3 was immunoprecipitated from cell lysates using the 9E10 monoclonal antibody and assayed with MBP as substrate. […] After UV-C irradiation, SAPK3 activity in the extracts was 0.18 U/mg (KB cells) and 0.1 U/mg (293 cells).
# Cell culture and transient transfections. 293, KB and COS-7 cells were cultured in Dulbecco's modified Eagles' Medium (DMEM) supplemented with 10% foetal calf serum, at 37° C., in an atmosphere of 5% CO2. Transfections of 293 cells were carried out using the calcium-phosphate method. […]
molecule,measurement,value
B1,Activation of transfected SAPK3 (in words),more weakly
